Measured values as given in IntAct's records for PubMed 20553494.

B1: Homeobox protein Meis2 (Homo sapiens), O14770-4 (parent)
chain: MAQRYDELPHYGGMDGVGVPASMYGDPHAPRPIPPVHHLNHGPPLHATQHYGAHAPHPNVMPASMGSAVNDALKRDKDAIYGHPLFPLLALVFEKCELATCTPREPGVAGGDVCSSDSFNEDIAVFAKQVRAEKPLFSSNPELDNLMIQAIQVLRFHLLELEKVHELCDNFCHRYISCLKGKMPIDLVIDERDGSSKSDHEELSGSSTNLADHNPSSWRDHDDATSTHSAGTPGPSSGGHASQSGDNSSEQGDGLDNSVASPGTGDDDDPDKDKKRQKKRGIFPKVATNIMRAWLFQHLTHPYPSEEQKKQLAQDTGLTILQVNNWFINARRRIVQPMIDQSNRAVSQGAAYSPEGQPMGSFVLDGQQHMGIRPAGLQSMPGDYVSQGGPMGMSMAQPSYTPPQMTPHPTQLRHGPPMHSYLPSHPHHPAMMMHGGPPTHPGMTMSAQSPTMLNSVDPNVGGQVMDIHAQ
partner: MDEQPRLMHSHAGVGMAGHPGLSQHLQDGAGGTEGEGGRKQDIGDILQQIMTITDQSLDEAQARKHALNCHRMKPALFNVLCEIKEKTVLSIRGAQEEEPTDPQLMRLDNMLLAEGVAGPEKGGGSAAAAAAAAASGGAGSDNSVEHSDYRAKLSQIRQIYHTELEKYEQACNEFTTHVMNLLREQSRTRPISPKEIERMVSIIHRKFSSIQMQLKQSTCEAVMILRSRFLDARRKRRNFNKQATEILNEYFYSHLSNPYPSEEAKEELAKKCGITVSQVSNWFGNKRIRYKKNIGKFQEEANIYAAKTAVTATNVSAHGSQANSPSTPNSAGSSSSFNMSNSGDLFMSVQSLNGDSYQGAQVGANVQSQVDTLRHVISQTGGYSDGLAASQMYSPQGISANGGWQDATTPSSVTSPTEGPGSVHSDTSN

Variants of: B1
Details: with pbx1_human PBX1, P40424

| effect of a mutation on the interaction | Variant |
| --- | --- |
| decreasing interaction | MAQRYDELPHYGGMDGVGVPASMYGDPHAPRPIPPVHHLNHGPPLHATQHYGAHAPHPNVMPASMGSAVNDALKRDKDAIYGHPLFPALALVFEKCELATCTPREPGVAGGDVCSSDSFNEDIAVFAKQVRAEKPLFSSNPELDNLMIQAIQVLRFHLLELEKVHELCDNFCHRYISCLKGKMPIDLVIDERDGSSKSDHEELSGSSTNLADHNPSSWRDHDDATSTHSAGTPGPSSGGHASQSGDNSSEQGDGLDNSVASPGTGDDDDPDKDKKRQKKRGIFPKVATNIMRAWLFQHLTHPYPSEEQKKQLAQDTGLTILQVNNWFINARRRIVQPMIDQSNRAVSQGAAYSPEGQPMGSFVLDGQQHMGIRPAGLQSMPGDYVSQGGPMGMSMAQPSYTPPQMTPHPTQLRHGPPMHSYLPSHPHHPAMMMHGGPPTHPGMTMSAQSPTMLNSVDPNVGGQVMDIHAQ [L88A] |
| decreasing interaction | MAQRYDELPHYGGMDGVGVPASMYGDPHAPRPIPPVHHLNHGPPLHATQHYGAHAPHPNVMPASMGSAVNDALKRDKDAIYGHPAFPLLALVFEKCELATCTPREPGVAGGDVCSSDSFNEDIAVFAKQVRAEKPLFSSNPELDNLMIQAIQVLRFHLLELEKVHELCDNFCHRYISCLKGKMPIDLVIDERDGSSKSDHEELSGSSTNLADHNPSSWRDHDDATSTHSAGTPGPSSGGHASQSGDNSSEQGDGLDNSVASPGTGDDDDPDKDKKRQKKRGIFPKVATNIMRAWLFQHLTHPYPSEEQKKQLAQDTGLTILQVNNWFINARRRIVQPMIDQSNRAVSQGAAYSPEGQPMGSFVLDGQQHMGIRPAGLQSMPGDYVSQGGPMGMSMAQPSYTPPQMTPHPTQLRHGPPMHSYLPSHPHHPAMMMHGGPPTHPGMTMSAQSPTMLNSVDPNVGGQVMDIHAQ [L85A] |

Variants of: B1
Details: with pbx1_human PBX1, P40424
Remark: another data set of the same source

| effect of a mutation on the interaction | Variant |
| --- | --- |
| decreasing interaction | MAQRYDELPHYGGMDGVGVPASMYGDPHAPRPIPPVHHLNHGPPLHATQHYGAHAPHPNVMPASMGSAVNDALKRDKDAIYGHPLFPLLALVFEKCELATCTPREPGVAGGDVCSSDSFNEDIAVFAKQVRAEKPLFSSNPELDNLMIQAIQVLRFHLLELAKVHELCDNFCHRYISCLKGKMPIDLVIDERDGSSKSDHEELSGSSTNLADHNPSSWRDHDDATSTHSAGTPGPSSGGHASQSGDNSSEQGDGLDNSVASPGTGDDDDPDKDKKRQKKRGIFPKVATNIMRAWLFQHLTHPYPSEEQKKQLAQDTGLTILQVNNWFINARRRIVQPMIDQSNRAVSQGAAYSPEGQPMGSFVLDGQQHMGIRPAGLQSMPGDYVSQGGPMGMSMAQPSYTPPQMTPHPTQLRHGPPMHSYLPSHPHHPAMMMHGGPPTHPGMTMSAQSPTMLNSVDPNVGGQVMDIHAQ [E162A] |

Variants of: B1
Details: with pbx1_human PBX1, P40424
Remark: another data set of the same source

| effect of a mutation on the interaction | Variant |
| --- | --- |
| decreasing interaction | MAQRYDELPHYGGMDGVGVPASMYGDPHAPRPIPPVHHLNHGPPLHATQHYGAHAPHPNVMPASMGSAVNDALKRDKDAIYGHPLFPLLALVFEKCELATCTPREPGVAGGDVCSSDSFNEDIAVFAKQVRAEKPLFSSNPELDNLMIQAIQVLRFHLLEAEKVHELCDNFCHRYISCLKGKMPIDLVIDERDGSSKSDHEELSGSSTNLADHNPSSWRDHDDATSTHSAGTPGPSSGGHASQSGDNSSEQGDGLDNSVASPGTGDDDDPDKDKKRQKKRGIFPKVATNIMRAWLFQHLTHPYPSEEQKKQLAQDTGLTILQVNNWFINARRRIVQPMIDQSNRAVSQGAAYSPEGQPMGSFVLDGQQHMGIRPAGLQSMPGDYVSQGGPMGMSMAQPSYTPPQMTPHPTQLRHGPPMHSYLPSHPHHPAMMMHGGPPTHPGMTMSAQSPTMLNSVDPNVGGQVMDIHAQ [L161A] |
| decreasing interaction | MAQRYDELPHYGGMDGVGVPASMYGDPHAPRPIPPVHHLNHGPPLHATQHYGAHAPHPNVMPASMGSAVNDALKRDKDAIYGHPLFPLLALVFEKCELATCTPREPGVAGGDVCSSDSFNEDIAVFAKQVRAEKPLFSSNPELDNLMIQAIQVLRFHALELEKVHELCDNFCHRYISCLKGKMPIDLVIDERDGSSKSDHEELSGSSTNLADHNPSSWRDHDDATSTHSAGTPGPSSGGHASQSGDNSSEQGDGLDNSVASPGTGDDDDPDKDKKRQKKRGIFPKVATNIMRAWLFQHLTHPYPSEEQKKQLAQDTGLTILQVNNWFINARRRIVQPMIDQSNRAVSQGAAYSPEGQPMGSFVLDGQQHMGIRPAGLQSMPGDYVSQGGPMGMSMAQPSYTPPQMTPHPTQLRHGPPMHSYLPSHPHHPAMMMHGGPPTHPGMTMSAQSPTMLNSVDPNVGGQVMDIHAQ [L158A] |

Variants of: B1
Details: with pbx1_human PBX1, P40424
Remark: another data set of the same source

| effect of a mutation on the interaction | Variant |
| --- | --- |
| decreasing interaction | MAQRYDELPHYGGMDGVGVPASMYGDPHAPRPIPPVHHLNHGPPLHATQHYGAHAPHPNVMPASMGSAVNDALKRDKDAIYGHPLFPLLALVFEKCELATCTPREPGVAGGDVCSSDSFNEDIAVFAKQVRAEKPLFSSNPELDNLMIQAIQVARFHLLELEKVHELCDNFCHRYISCLKGKMPIDLVIDERDGSSKSDHEELSGSSTNLADHNPSSWRDHDDATSTHSAGTPGPSSGGHASQSGDNSSEQGDGLDNSVASPGTGDDDDPDKDKKRQKKRGIFPKVATNIMRAWLFQHLTHPYPSEEQKKQLAQDTGLTILQVNNWFINARRRIVQPMIDQSNRAVSQGAAYSPEGQPMGSFVLDGQQHMGIRPAGLQSMPGDYVSQGGPMGMSMAQPSYTPPQMTPHPTQLRHGPPMHSYLPSHPHHPAMMMHGGPPTHPGMTMSAQSPTMLNSVDPNVGGQVMDIHAQ [L154A] |

Variants of: B1
Details: with pbx1_human PBX1, P40424
Remark: another data set of the same source

| effect of a mutation on the interaction | Variant |
| --- | --- |
| decreasing interaction | MAQRYDELPHYGGMDGVGVPASMYGDPHAPRPIPPVHHLNHGPPLHATQHYGAHAPHPNVMPASMGSAVNDALKRDKDAIYGHPLFPLLALVFNKCELATCTPREPGVAGGDVCSSDSFNEDIAVFAKQVRAEKPLFSSNPELDNLMIQAIQVLRFHLLELEKVHELCDNFCHRYISCLKGKMPIDLVIDERDGSSKSDHEELSGSSTNLADHNPSSWRDHDDATSTHSAGTPGPSSGGHASQSGDNSSEQGDGLDNSVASPGTGDDDDPDKDKKRQKKRGIFPKVATNIMRAWLFQHLTHPYPSEEQKKQLAQDTGLTILQVNNWFINARRRIVQPMIDQSNRAVSQGAAYSPEGQPMGSFVLDGQQHMGIRPAGLQSMPGDYVSQGGPMGMSMAQPSYTPPQMTPHPTQLRHGPPMHSYLPSHPHHPAMMMHGGPPTHPGMTMSAQSPTMLNSVDPNVGGQVMDIHAQ [E94N] |
